B1: N-WASPC (N-WASP residues 193-501) (domain or fragment)
chain: KRLTKADIGTPSNFQHIGHVGWDPNTGFDLNNLDPELKNLFDMCGISEAQLKDRETSKVIYDFIEKTGGVEAVKNELRRQAPPPPPPSRGGPPPPPPPPHSSGPPPPPARGRGAPPPPPSRAPTAAPPPPPPSRPGVVVPPPPPNRMYPPPPPALPSSAPSGPPPPPPLSMAGSTAPPPPPPPPPPPGPPPPPGLPSDGDHQVPASSGNKAALLDQIREGAQLKKVEQNSRPVSCSGRDALLDQIRQGIQLKSVSDGQESTPPTPAPTSGIVGALMEVMQKRSKAIHSSDEDEDDDDEEDFQDDDEWED

In test [1] the target is B1. Description: ITC. A general note: In ITC the heat of successive injections is recorded.
For test [2], the target named is T1, WASP GBD (GTPase binding domain, residues 242-310) (UniProt P42768 242-310).
T1 sequence (looked up): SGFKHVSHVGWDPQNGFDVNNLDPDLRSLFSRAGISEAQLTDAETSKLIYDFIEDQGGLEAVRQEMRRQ
The test can be described thus: NMR titration.

The target of test [3] is EspFU R47 (full 47-residue fifth repeat of EspFU) (enterohaemorrhagic E. coli (EHEC, …, UniProt P0DJ88 268-314)). The test can be described thus: ITC.

As a reminder, the Kd is the free concentration of one partner at which half of the binding sites on the other are occupied at equilibrium, for simple one-to-one binding. Read a high Kd as weaker binding. The molecule LPDVAQRLMQHLAEHGIQ [EspFU R18 peptide] returned a Kd in test [1] of 4000 nM.
As for LPDVAQRLMQHLAEHGIQPARNMAEHIPPAPNW (domain or fragment) [EspFU R33 (N-terminal 33-residue fragment of the fifth repeat)], the “stoichiometry N” value in test [2] is 1 EspFU:GBD. This molecule also yielded a Kd in test [1] of 35 nM.
As for B1, in test [3], binding was characterised by a dissociation constant (Kd) of 35 nM.

These data come from publication PMC2719906 (Nature, 2008).
